The values below come from US20210246166A1 (Bayer, published 2021).

To fix the notation:
T1: recombinant rat MASP1 active protease (amino acids 302-704, C-terminal His Tag) (rat, UniProt Q8CHN8 302-704)
T1 sequence: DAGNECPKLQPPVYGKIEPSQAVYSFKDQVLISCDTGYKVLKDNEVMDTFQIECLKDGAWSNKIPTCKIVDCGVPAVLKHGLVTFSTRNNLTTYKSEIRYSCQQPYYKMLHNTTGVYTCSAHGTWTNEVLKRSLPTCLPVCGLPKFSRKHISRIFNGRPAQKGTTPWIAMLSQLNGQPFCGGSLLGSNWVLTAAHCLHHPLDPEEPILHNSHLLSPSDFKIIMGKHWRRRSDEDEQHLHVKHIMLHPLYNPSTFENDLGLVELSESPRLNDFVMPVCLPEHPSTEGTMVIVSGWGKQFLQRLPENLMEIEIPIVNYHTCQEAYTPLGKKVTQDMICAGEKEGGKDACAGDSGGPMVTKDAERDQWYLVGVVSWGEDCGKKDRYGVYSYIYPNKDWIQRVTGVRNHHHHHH

B1: Example 32: (ACMP)-IC+SRS-((tBu)A)-PPI-(Pen)+IPD-NH2 (peptide)
peptide: [cPrCO(1-aminomethyl)]ICSRS[tBuAla]PPI[Pen]IPD-NH2
modifications: disulfide 3-11; N-terminus assumed
SMILES: CC[C@H](C)[C@@H]1NC(=O)[C@@H]2CCCN2C(=O)[C@@H]2CCCN2C(=O)[C@H](CC(C)(C)C)NC(=O)[C@H](CO)NC(=O)[C@H](CCCNC(=N)N)NC(=O)[C@H](CO)NC(=O)[C@@H](NC(=O)[C@@H](NC(=O)C2(CN)CC2)[C@@H](C)CC)CSSC(C)(C)[C@@H](C(=O)N[C@H](C(=O)N2CCC[C@H]2C(=O)N[C@@H](CC(=O)O)C(N)=O)[C@@H](C)CC)NC1=O
B2: Example 126: ((N-Me)A)-IC+SRS-((tBu)A)-PPI-(Pen)+IP-NH2 (peptide)
peptide: [NMeA]ICSRS[tBuAla]PPI[Pen]IP-NH2
modifications: disulfide 3-11; N-terminus assumed
SMILES: CC[C@H](C)[C@H](NC(=O)[C@H](C)NC)C(=O)N[C@H]1CSSC(C)(C)[C@@H](C(=O)N[C@H](C(=O)N2CCC[C@H]2C(N)=O)[C@@H](C)CC)NC(=O)[C@H]([C@@H](C)CC)NC(=O)[C@@H]2CCCN2C(=O)[C@@H]2CCCN2C(=O)[C@H](CC(C)(C)C)NC(=O)[C@H](CO)NC(=O)[C@H](CCCNC(=N)N)NC(=O)[C@H](CO)NC1=O
B3: Example 109: ((N-Me)G)-IC+SRSLP-(Oic)-I-(Pen)+IP-NH2 (peptide)
peptide: [Sar]ICSRSLP[Oic]I[Pen]IP-NH2
modifications: disulfide 3-11; N-terminus assumed
SMILES: CC[C@H](C)[C@H](NC(=O)CNC)C(=O)N[C@H]1CSSC(C)(C)[C@@H](C(=O)N[C@H](C(=O)N2CCC[C@H]2C(N)=O)[C@@H](C)CC)NC(=O)[C@H]([C@@H](C)CC)NC(=O)[C@@H]2C[C@@H]3CCCC[C@@H]3N2C(=O)[C@@H]2CCCN2C(=O)[C@H](CC(C)C)NC(=O)[C@H](CO)NC(=O)[C@H](CCCNC(=N)N)NC(=O)[C@H](CO)NC1=O
B4: Example 41: AIC+SRS-((tBu)A)-P-((6S)-5-Azaspiro[2.4]heptane-6-carboxylic acid)-I-((N-Me)C)+IPD-NH2 (peptide)
peptide: AICSRS[tBuAla]P[Pro(4-spirocPr)]I[NMeC]IPD-NH2
modifications: disulfide 3-11; N-terminus assumed
SMILES: CC[C@H](C)[C@H](NC(=O)[C@H](C)N)C(=O)N[C@H]1CSSC[C@@H](C(=O)N[C@H](C(=O)N2CCC[C@H]2C(=O)N[C@@H](CC(=O)O)C(N)=O)[C@@H](C)CC)N(C)C(=O)[C@H]([C@@H](C)CC)NC(=O)[C@@H]2CC3(CC3)CN2C(=O)[C@@H]2CCCN2C(=O)[C@H](CC(C)(C)C)NC(=O)[C@H](CO)NC(=O)[C@H](CCCNC(=N)N)NC(=O)[C@H](CO)NC1=O
B5: Example 90: ((N-Me)G)-IC+SRSL-((1S,2S,5R)-3-azabicyclo[3.1.0]hexane-2-carboxylic acid)-PI-(Pen)+IPE-NH2 (peptide)
peptide: [Sar]ICSRSL[Pro(3S,4R-methano)]PI[Pen]IPE-NH2
modifications: disulfide 3-11; N-terminus assumed
SMILES: CC[C@H](C)[C@H](NC(=O)CNC)C(=O)N[C@H]1CSSC(C)(C)[C@@H](C(=O)N[C@H](C(=O)N2CCC[C@H]2C(=O)N[C@@H](CCC(=O)O)C(N)=O)[C@@H](C)CC)NC(=O)[C@H]([C@@H](C)CC)NC(=O)[C@@H]2CCCN2C(=O)[C@@H]2[C@H]3C[C@H]3CN2C(=O)[C@H](CC(C)C)NC(=O)[C@H](CO)NC(=O)[C@H](CCCNC(=N)N)NC(=O)[C@H](CO)NC1=O

Numbered stars: 1 amine (or outer) side, 2 acyl side, 3 side chain; on linkers, the order of the positions; unused ones are H or OH. Bridge positions count the residues as written; N and C are the ends. Square brackets hold non-standard residues; d marks the D form. Ends that are not written are not given here. PEG9(31 atoms) = 1-amino-3,6,9,12,15,18,21,24,27-nonaoxatriacontan-30-oic acid; Pro(3S,4R-methano) = O=C(O)[C@H]1NC[C@@H]2C[C@@H]21; cPrCO(1-aminomethyl) = O=C(C1(CN[*:1])CC1)[*:2]; Pro(4-spirocPr) = O=C(O)[C@@H]1CC2(CC2)CN1; Oic = O=C(O)[C@@H]1C[C@@H]2CCCC[C@@H]2N1; tBuAla = CC(C)(C)C[C@H](N)C(=O)O; PEG5 = NCCOCCOCCOCCOCCOCCC(=O)O; Pen = CC(C)(S)[C@H](N)C(=O)O; NMeC = CN[C@@H](CS)C(=O)O; PEG3 = NCCOCCOCCOCCC(=O)O; NMeA = CN[C@@H](C)C(=O)O; Sar = CNCC(=O)O

The target of one assay is T1, recombinant rat MASP1 active protease …. The assay is described as follows: cell-based or functional assay.
For the molecule B1, the “rat MASP1 IC50” value came out at 56 nM.
Turning to B2, the “rat MASP1 IC50” value stood at 11 nM.
Still for that read-out and setting: the same measure for [Sar]ICSRS[tBuAla]PPI[Pen]IP-{PEG3-NH2} (disulfide 3-11) [Example 72: ((N-Me)G)-IC+SRS-((tBu)A)-PPI-(Pen)+IP-(PEG2(13 atoms))-NH2]: 43 nM; for B3: 76 nM.
Still for that read-out and setting: next, [Sar]ICSRSLP[Oic]I[Pen]IP-{PEG5-NH2} (disulfide 3-11) [Example 97: ((N-Me)G)-IC+SRSLP-(Oic)-I-(Pen)+IP-(PEG4(19 atoms))-NH2]: 120 nM; B4: 28 nM; [Sar]ICSRS[tBuAla]PPI[Pen]IP[PEG9(31 atoms)]-NH2 (disulfide 3-11) [Example 44: ((N-Me)G)-IC+SRS-((tBu)A)-PPI-(Pen)+IP-(PEG9(31 atoms))-NH2]: 87 nM.
On to B5, for which the “rat MASP1 IC50” value worked out at 67 nM.
As for [Sar]ICSRSLP[Oic]I[Pen]IP-NH2 (disulfide 3-11; also: HCl salt) [Example 67: ((N-Me)G)-IC+SRSLP-(Oic)-I-(Pen)+IP-NH2 (HCl salt)], the “rat MASP1 IC50” value was 72 nM.
With [Sar]ICSRS[tBuAla]PPI[Pen]IP-{PEG5‑CH2CO2H (18 atoms)-NH2} (disulfide 3-11) [Example 55: ((N-Me)G)-IC+SRS-((tBu)A)-PPI-(Pen)+IP-(PEG5-CH2CO2H (18 atoms))-NH2], the “rat MASP1 IC50” value came out at 65 nM.

In the next assay the target is recombinant rat MASP2 active protease (amino acids 296-685, C-terminal His Tag) (rat, UniProt Q9JJS8 296-685). The assay can be described thus: cell-based or functional assay.
Sequence of recombinant rat MASP2 active protease (amino acids 296-685, C-terminal His Tag) (Q9JJS8 other isoform, or with tags, fused parts or gaps limits assumed): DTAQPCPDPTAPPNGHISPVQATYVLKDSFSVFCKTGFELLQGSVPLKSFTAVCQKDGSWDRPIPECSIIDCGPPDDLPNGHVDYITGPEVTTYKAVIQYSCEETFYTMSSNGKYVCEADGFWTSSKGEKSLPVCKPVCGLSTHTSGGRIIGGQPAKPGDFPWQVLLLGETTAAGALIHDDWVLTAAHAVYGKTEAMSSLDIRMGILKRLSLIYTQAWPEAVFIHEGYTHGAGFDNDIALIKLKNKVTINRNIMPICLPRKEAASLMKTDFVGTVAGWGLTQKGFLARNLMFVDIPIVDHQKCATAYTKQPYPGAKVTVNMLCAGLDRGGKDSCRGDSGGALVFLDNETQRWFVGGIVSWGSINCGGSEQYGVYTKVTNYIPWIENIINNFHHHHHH
On to B1, for which the “rat MASP2 IC50” value was 48 nM.
The same measure, in the same setting: next, B2: 10 nM; [Sar]ICSRS[tBuAla]PPI[Pen]IP-{PEG3-NH2} (disulfide 3-11) [Example 72: ((N-Me)G)-IC+SRS-((tBu)A)-PPI-(Pen)+IP-(PEG2(13 atoms))-NH2]: 27 nM.
Same read-out and setting: next, B3: 42 nM; [Sar]ICSRSLP[Oic]I[Pen]IP-{PEG5-NH2} (disulfide 3-11) [Example 97: ((N-Me)G)-IC+SRSLP-(Oic)-I-(Pen)+IP-(PEG4(19 atoms))-NH2]: 51 nM.
On the same count and under the same terms, next, B4: 13 nM.
Take [Sar]ICSRS[tBuAla]PPI[Pen]IP[PEG9(31 atoms)]-NH2 (disulfide 3-11) [Example 44: ((N-Me)G)-IC+SRS-((tBu)A)-PPI-(Pen)+IP-(PEG9(31 atoms))-NH2]: the “rat MASP2 IC50” value turned out to be 35 nM.
As to B5, the “rat MASP2 IC50” value was 55 nM.
With [Sar]ICSRSLP[Oic]I[Pen]IP-NH2 (disulfide 3-11; also: HCl salt) [Example 67: ((N-Me)G)-IC+SRSLP-(Oic)-I-(Pen)+IP-NH2 (HCl salt)], the “rat MASP2 IC50” value amounted to 36 nM.
[Sar]ICSRS[tBuAla]PPI[Pen]IP-{PEG5‑CH2CO2H (18 atoms)-NH2} (disulfide 3-11) [Example 55: ((N-Me)G)-IC+SRS-((tBu)A)-PPI-(Pen)+IP-(PEG5-CH2CO2H (18 atoms))-NH2]: the “rat MASP2 IC50” value stood at 27 nM.
